Data: US20220348923, “CA-IX APTAMERS AND DIAGNOSTIC AND THERAPEUTIC USES THEREOF” (BRACCO IMAGING S.P.A., published 2022)

Target: Carbonic Anhydrase IX (CA-IX) (Homo sapiens, UniProt Q16790 Q16790:38-414)
Test: RT-qPCR cell binding, 100 nM, 15 min, 37 C, acid condition

Row | Binder | binding signal [fold over COS7-WT]
1 | UCGAAUGAACCAAGGUUCCUCGGC (ssRNA, 2'-F pyrimidines) [SAM-2.T1] | 2.4
2 | UUCGUGCCGCUGAGUGCGUACGGGC (ssRNA, 2'-F pyrimidines) [SAM-1.T1] | 1.3
